# Reference: the nanobody polyreactivity screen of Harvey et al. (2022)
# Assay: yeast display, Sf9 membrane polyspecificity reagent, FACS + sequencing; frameworks hold sequencing errors
# Method in brief: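 A synthetic nanobody library was expressed on Saccharomyces cerevisiae BJ5465 by galactose induction for 36–48 hours. The library was stained for 1 hour at 4 °C with 10% biotinylated, detergent-solubilized Sf9 membrane reagent and enriched with streptavidin microbeads before FACS. Low and high (top ~1%) gates were set on anti-HA fluorescence for expression and streptavidin fluorescence for reagent binding, and each polyreactivity label reflects the gate of origin.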
row,Sequence,polyreactivity (PSR sort gate)
1,QVQLVESGGGLVQAGGSLRLSCAASGSTFYVNAMGWYRQAPGKERELVAYADSVKGRFTISRDNAKNTVYLQMNSLKPEDTAVYYCNADIEYRPGHGRLGDYDYWGQGTQVTVSS,low polyreactivity
2,QVQLVESGGGLVQAGGSLRLSCAASGSTFYVYAMGSYRQAPGKERELVAAITRGGSTYYADSVKARFTISRDNAKNTVYLQMNSLKPEDTAVYYCAKYLTGAADLVPEYDYWGQGTQVTVSS,low polyreactivity
3,QVQLVESGGGLVQAGGSLRLSCAASGSTFYVYAMGWYRQAPGKEREFVAAISFSSGSTYYADSVKGRFTISRDYAKNTVYLQMNSLKPEDTAVYYCAARYRYPRSIGYGYGGAFDYWGQGTQVTVSS,high polyreactivity
4,QVQLVESGGGLVQAGGSLRLSCAASGSTFYVYAMGWYRQAPGKERELVAAIDSGDSTNYADSVKGRFTISRDNAKNTVYLQMNSLNPEDTAVYYCAVGYWDSRYRYDWPNSDYWGQGTQVTVSS,low polyreactivity
5,QVQLVESGGGLVQAGGSLRLSCAASGSTFYVYAMGWYRQAPGKERELVAAITVRGGSTYYADSVKGRFTISRDNAKYTVYLQMNSLKPEDTAVYYCAVDVSKPYYEMDYWGQGTQVTVSS,high polyreactivity
6,QVQLVESGGGLVQAGGSLRLSCAASGSTFYVYDMGWYRQAPGKERELVAAITRRGGSTYYADSVKGRFTISRDNAKNTVYLQMNSLKPVDTAVYYCAARTAYYPTHRYYWGQGTQVTVSS,high polyreactivity
7,QVQLVESGGGLVQAGGSLRLSCAASGSTFYWYAKGWYRQAPGKERELVAAITSTGGSTYADSVKGRFTISRDNAKNTVYLQMNSLKPEDTAVYYCNVDTSSPSRRDYDYWGQGTQVTVSS,low polyreactivity
8,QVQLVESGGGLVQAGGSLRLSCAASGSTFYWYSMGWYRQAPGKERELVAAITSTGGSTYADSVKGRFTISRDNAKNTVYLQMNSLKPEDTAVYYCNVDTSSPSRRDYDYWGQGTQVTVSS,low polyreactivity
9,QVQLVESGGGLVQAGGSLRLSCAASGSTFYWYTMGWYRQAPGKEREMVATITSVGRTNYADSVKGRFTISRDNAKNTVYLQMNSLKPEDTAVYYCAASKARWPRGGSKYYYWGQGTQVSVSS,high polyreactivity
10,QVQLVESGGGLVQAGGSLRLSCAASGSTFYYAIGRYRQAPGKERELVASITFSTGSTYYADSVKGRFTISRDNAKNTVYLQLNSLKPEDTAVYYCATGVDTYSLTVEHDSWGQGTQVTVSS,low polyreactivity
11,QVQLVESGGGLVQAGGSLRLSCAASGSTFYYAMGWYRQAPGKERELVASITFSTGSTYYADSVKGRFTISRDNAKNTVYLQMTSLKPEDTAVYYCATGVDTYSLTVEHDSWGQGTQVTVSS,low polyreactivity
12,QVQLVESGGGLVQAGGSLRLSCAASGSTFYYKSMGWYRQAPGKERELVAAITFTGGSTYADSVKGRFTISRDNAKNTVYLQMNSLIPEDTAVYYCAATIQGHDYLGTGYDYWGQGTQVTVSS,low polyreactivity
13,QVQLVESGGGLVQAGGSLRLSCAASGSTFYYNAMGWYRQAPGKETELVADISWRGGITYYADSVKGRFTISRDNAKNTVYLQMNSLKPEDTAVYYCNADAESFDDGYWGQGTQVTVSS,low polyreactivity
14,QVQLVESGGGLVQAGGSLRLSCAASGSTFYYNTMGWYRQAPGKERELVAAITSGDTTYYADSVKGRFTISRDNAKNTVYLQMNSLKPEDTAVYYCAAAWPYARYDYWGQGTQVTVSS,low polyreactivity
15,QVQLVESGGGLVQAGGSLRLSCAASGSTFYYYAMGWSRQAPGKERELVAGITWSGGRTYYADSVKGRFTISRDNAKNTVYLQMNSLKTEDTAVYYCAASLYTWTYQPVYYRDGYWGQGTQVTVSS,low polyreactivity
16,QVQLVESGGGLVQAGGSLRLSCAASGSTFYYYAMGWSRQAPGQERELVAAISWRGSSTYYADAVQGRFTISRDNAKNTVYLQLNSLKPEDTAVSYCAAGYPGRVSGYRYGTRATYYYWGQGTQVTVSS,high polyreactivity

row,Sequence,polyreactivity (PSR sort gate)
1,QVQLVESGGGLVQAGGSLRLSCAASGSTFYYYAMGWYRPAPGKERELVAAIRSDVSTNYADSVKGRFTISRDNAKNTVYLQMNSLKPEDTAVYYCAARFPWNRVTYDYWGQGTQVTVSS,low polyreactivity
2,QVQLVESGGGLVQAGGSLRLSCAASGSTFYYYAMGWYRQAPGKEMELVAAISGSGGNTYYADSVKGRFTISRDNAKNTVYLQMNSLKPEDTAVYYCAADYGYPLGVSWYGYGYWGQGTQVTVSS,low polyreactivity
3,QVQLVESGGGLVQAGGSLRLSCAASGSTFYYYAMGWYRQAPGKERELVAAIDRDDRTNYADSVKGRFTISRDNAKNTVYLQMNSLKPEDTAVYYCAAVEIYEYDYWGQGTQVTVSS,low polyreactivity
4,QVQLVESGGGLVQAGGSLRLSCAASGSTFYYYAMGWYRQAPGKERELVAAINSSGGNTYYADSVKGRFTISRDNAKNTVYLQMNSLKPEDTAVYYCATGQIAYSSYGPFDYWGQGTQVTVSS,low polyreactivity
5,QVQLVESGGGLVQAGGSLRLSCAASGSTFYYYAMGWYRQAPGKERELVAAINSSGGNTYYADSVKGRFTISRDNAKNTVYLQMNSLNPEDTAVYYCATEYYWLQDYDYWGHGTQVTVSS,low polyreactivity
6,QVQLVESGGGLVQAGGSLRLSCAASGSTFYYYAMGWYRQAPGKERELVAAISWSGGSTYYADSVKGRFTISRDNAKNTVYLQMNSLKPEDTAVYYCNKYVRFRGGAYVTGYDYWGQGTQVTVSS,high polyreactivity
7,QVQLVESGGGLVQAGGSLRLSCAASGSTFYYYAMGWYRQAPGKERELVAAITKSGGSTYYADSVKGRFTISGDNAKNTVYLQMNTLKPEDTAVYYCAAYLRSGYKFDYWGQGTQVTVSS,low polyreactivity
8,QVQLVESGGGLVQAGGSLRLSCAASGSTFYYYAMGWYRQAPGKERELVAAITYSGGGTYYADSVKGRFTISRDNAKNTFYLQMNSLKPEDTAVYYCAKTIAVNTWYYYWGQGTQVTVSS,low polyreactivity
9,QVQLVESGGGLVQAGGSLRLSCAASGSTFYYYAMGWYRQAPGKERELVASISASGGNTYYADSVKGRFTISRDNAKNTVYLQMNSLKPEDTAVYYCAARARRSQSISLKYYYWGQGTQVTVSS,high polyreactivity
10,QVQLVESGGGLVQAGGSLRLSCAASGSTFYYYAMGWYRQAPGKERELVASISDDGSTNYADSVKGRFTISRDNAKNTVYLQMNSLKPEDTAVYYCAAVWWHQFGSAWYQMGYWGQGTQVTVSS,low polyreactivity
11,QVQLVESGGGLVQAGGSLRLSCAASGSTFYYYAMGWYRQAPGKERELVASITTGGGSTYYADSVKGRFTISRDNAKNTFYLEMNSLKPEDTAVYYCAAALSYYFWWYDYLGQGTQVTVSS,low polyreactivity
12,QVQLVESGGGLVQAGGSLRLSCAASGSTFYYYAMGWYRQAPGKERELVATITSTGRTNYADSVKGRFTISRDNAKNTVYLQMNSLKPEDTAVYYCAALRRIQRPEYGYWGQGTQVTVSS,low polyreactivity
13,QVQLVESGGGLVQAGGSLRLSCAASGSTFYYYARGWYRQAPGKERELVATITSGASTNYADSVKGRFTISRDNAKNTVYLQMNSLKPEDTAVYYCNAVSLTSYLPWSSYDYWGQGTQVTVSS,low polyreactivity
14,QVQLVESGGGLVQAGGSLRLSCAASGSTFYYYGMGWYRQAPGKERELVASISWGGGSTYYADSVKGRFTISRDNAKNTVYLQMNILKPEDTAVYYCATRGSYLGGLYDYWGQGTQVTVSS,high polyreactivity
15,QVQLVESGGGLVQAGGSLRLSCAASGSTFYYYGMGWYRQAPGKESALVAAISSSGGNTYYADSVKGRFTISRDNAKNTVYLQMNSLKPEDTAVYYCARGGHRGYWGQGTQVTVSS,low polyreactivity
16,QVQLVESGGGLVQAGGSLRLSCAASGSTFYYYTMGCYRQAPGKEREFVAAITRSGGSTYYADSVKGRFTISRDNAKNTVYLQMNSLKPEDTAVYYCAATRQRVKSEYWGQGTQVTVSS,low polyreactivity
